Laboratory results taken from patent US20190211400A1.

Molecular target: death receptor (DR) 3 on mouse mucosal CD4+ T cells (mouse)
Assay: cell-based or functional assay

## TL1A added to mouse MLN and LP mononuclear cell cultures (from UniProt Q5UBV8 76-252) (ligand)
  numbers of IFN-gamma producing CD4+ cells (intracellular staining of LPMC, without vs. with TL1A): 1
  numbers of IL-17-producing CD4+ cells (intracellular staining of LPMC, without vs. with TL1A): 0.89
